# Results taken from patent publication US7470669B2, “Isolated polypeptide comprising a leptin fragment” (Serono Genetics Institute, S.A., priority 1999, dated 2008).
# Legend:
# Type in all cases: cell-based
# [1] = target: LRP (Homo sapiens, UniProt Q07954); assay: Degradation of activated α2-macroglobulin (LRP ligand); settings: leptin up to 2 μg/mL
# [2] = tested on: LSR; assay: 125I-chylomicron binding to primary rat hepatocytes; settings: 20 ng/mL leptin with 0.5 mM oleate
# Method: FIGS. 6A, 6B, and 6C show the effect of leptin on ^125I-LDL and ^125I-chylomicron binding to LSR in primary cultures of rat hepatocytes. For FIG. 6A, primary cultures of rat hepatocytes (48 hours after plating) were incubated at 37° C. for 30 min in the absence (□) or presence (▪) of 50 ng/mL leptin in Buffer A, followed by a 20 min incubation at 37° C. with 0.5 mM oleate. The cells were then washed with ice-cold PBS, precooled for 10 min, and then incubated for 1 h at 4° C. with increasing concentrations of ^125I-LDL in Buffer A. Cells were washed, were lysed in 0.1 N NaOH and were counted for radioactivity. Results are shown as the mean of duplicate determinations. For FIG. 6B, primary cultures of rat hepatocytes were incubated at 37° C. for 30 min with or without 20 ng/mL leptin followed by incubation at 37° C. for 4 h with 6 μg protein/mL ^125I-chylomicrons in the absence or presence of 0.5 mM oleate in Buffer A. The cells were then washed and the ^125I-chylomicrons bound to the cell surface were released into the media by incubation with 10 mM suramin. The media was recovered and the radioactivity was measured. Results are shown as the mean±SD of six determinations. […] The amount of ^125I-chylomicrons bound was determined, and results are shown as means±SD of triplicate (irrelevant) or quadruplicate (anti-LSR) determinations. […]
# [3] = target: T1, LSR α (Homo sapiens, UniProt Q86X29); assay: 125I-leptin binding in CHO-K1 cells transiently transfected with LSR α; settings: transient transfection with LSR α plasmid; 10 ng/mL 125I-leptin
# T1 construct: The full-length LSR α, α′, and β clones were reconstructed in pTracer-CMV2 vector; expressed in transfected cells; host or cells: CHO-K1, transient (Fugene), pTracer-CMV2
# T1 sequence (Q86X29 1-649): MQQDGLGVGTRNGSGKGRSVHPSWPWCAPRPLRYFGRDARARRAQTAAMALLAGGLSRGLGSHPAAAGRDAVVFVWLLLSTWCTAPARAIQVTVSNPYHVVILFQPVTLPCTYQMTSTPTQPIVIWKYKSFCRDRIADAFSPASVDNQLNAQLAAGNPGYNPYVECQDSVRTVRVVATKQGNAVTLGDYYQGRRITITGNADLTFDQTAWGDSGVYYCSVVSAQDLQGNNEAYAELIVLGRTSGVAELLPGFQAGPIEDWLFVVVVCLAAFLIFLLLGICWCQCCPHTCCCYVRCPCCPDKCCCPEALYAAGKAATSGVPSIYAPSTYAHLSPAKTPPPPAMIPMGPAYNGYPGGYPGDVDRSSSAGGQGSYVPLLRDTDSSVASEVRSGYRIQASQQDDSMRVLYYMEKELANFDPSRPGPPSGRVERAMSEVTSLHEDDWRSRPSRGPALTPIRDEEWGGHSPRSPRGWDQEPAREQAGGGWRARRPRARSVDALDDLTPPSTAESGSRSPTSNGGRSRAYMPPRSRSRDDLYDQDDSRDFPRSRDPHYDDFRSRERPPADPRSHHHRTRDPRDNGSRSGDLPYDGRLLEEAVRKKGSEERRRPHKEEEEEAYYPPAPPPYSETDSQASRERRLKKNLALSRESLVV
# Method: FIGS. 3A, 3B, 3C, and 3D show the effect of LSR subunit transfection on leptin binding and degradation in CHO-K1 cells. For FIG. 3A, CHO-K1 cells were transfected with increasing concentrations of the α, (□), α′ (▪) or β (◯) LSR plasmid, or vector alone (●) using Fugene transfection reagent. After 48 h, the cells were washed once in PBS and incubated at 37° C. for 2 h with 10 ng/mL of ^125I-leptin in DMEM containing 0.2% (w/v) BSA, 2 mM CaCl2 and 5 mM HEPES, pH 7.4 (Buffer A). The monolayers were washed and lysed with 0.1 N NaOH containing 0.24 mM EDTA, and the lysates were counted. The results are shown as the amount of cell-associated ^125I-leptin. For FIG. 3B, lysates were prepared from CHO-K1 wild type, stable transfectants of vector or LSR α′ subunit, and PLC, and separated on a 10% SDS-polyacrylamide gel under denaturing and reduced conditions. After transfer to nitrocellulose, Western blots were performed using anti-LSR 170 antibody (can also be done with the human equivalent, 93A). […] For FIGS. 3C and 3D, confluent monolayers of stable-transfected cell lines expressing LSR α′ subunit (▪) or vector alone (●) were washed once in PBS and incubated at 37° C. for 2 h with increasing concentrations of ^125I-leptin in Buffer A. The amount of cell-associated (FIG. 3C) and degraded (FIG. 3D) ^125I-leptin was then measured as described herein. […]
# LRP, sequence (Q07954 20-4544): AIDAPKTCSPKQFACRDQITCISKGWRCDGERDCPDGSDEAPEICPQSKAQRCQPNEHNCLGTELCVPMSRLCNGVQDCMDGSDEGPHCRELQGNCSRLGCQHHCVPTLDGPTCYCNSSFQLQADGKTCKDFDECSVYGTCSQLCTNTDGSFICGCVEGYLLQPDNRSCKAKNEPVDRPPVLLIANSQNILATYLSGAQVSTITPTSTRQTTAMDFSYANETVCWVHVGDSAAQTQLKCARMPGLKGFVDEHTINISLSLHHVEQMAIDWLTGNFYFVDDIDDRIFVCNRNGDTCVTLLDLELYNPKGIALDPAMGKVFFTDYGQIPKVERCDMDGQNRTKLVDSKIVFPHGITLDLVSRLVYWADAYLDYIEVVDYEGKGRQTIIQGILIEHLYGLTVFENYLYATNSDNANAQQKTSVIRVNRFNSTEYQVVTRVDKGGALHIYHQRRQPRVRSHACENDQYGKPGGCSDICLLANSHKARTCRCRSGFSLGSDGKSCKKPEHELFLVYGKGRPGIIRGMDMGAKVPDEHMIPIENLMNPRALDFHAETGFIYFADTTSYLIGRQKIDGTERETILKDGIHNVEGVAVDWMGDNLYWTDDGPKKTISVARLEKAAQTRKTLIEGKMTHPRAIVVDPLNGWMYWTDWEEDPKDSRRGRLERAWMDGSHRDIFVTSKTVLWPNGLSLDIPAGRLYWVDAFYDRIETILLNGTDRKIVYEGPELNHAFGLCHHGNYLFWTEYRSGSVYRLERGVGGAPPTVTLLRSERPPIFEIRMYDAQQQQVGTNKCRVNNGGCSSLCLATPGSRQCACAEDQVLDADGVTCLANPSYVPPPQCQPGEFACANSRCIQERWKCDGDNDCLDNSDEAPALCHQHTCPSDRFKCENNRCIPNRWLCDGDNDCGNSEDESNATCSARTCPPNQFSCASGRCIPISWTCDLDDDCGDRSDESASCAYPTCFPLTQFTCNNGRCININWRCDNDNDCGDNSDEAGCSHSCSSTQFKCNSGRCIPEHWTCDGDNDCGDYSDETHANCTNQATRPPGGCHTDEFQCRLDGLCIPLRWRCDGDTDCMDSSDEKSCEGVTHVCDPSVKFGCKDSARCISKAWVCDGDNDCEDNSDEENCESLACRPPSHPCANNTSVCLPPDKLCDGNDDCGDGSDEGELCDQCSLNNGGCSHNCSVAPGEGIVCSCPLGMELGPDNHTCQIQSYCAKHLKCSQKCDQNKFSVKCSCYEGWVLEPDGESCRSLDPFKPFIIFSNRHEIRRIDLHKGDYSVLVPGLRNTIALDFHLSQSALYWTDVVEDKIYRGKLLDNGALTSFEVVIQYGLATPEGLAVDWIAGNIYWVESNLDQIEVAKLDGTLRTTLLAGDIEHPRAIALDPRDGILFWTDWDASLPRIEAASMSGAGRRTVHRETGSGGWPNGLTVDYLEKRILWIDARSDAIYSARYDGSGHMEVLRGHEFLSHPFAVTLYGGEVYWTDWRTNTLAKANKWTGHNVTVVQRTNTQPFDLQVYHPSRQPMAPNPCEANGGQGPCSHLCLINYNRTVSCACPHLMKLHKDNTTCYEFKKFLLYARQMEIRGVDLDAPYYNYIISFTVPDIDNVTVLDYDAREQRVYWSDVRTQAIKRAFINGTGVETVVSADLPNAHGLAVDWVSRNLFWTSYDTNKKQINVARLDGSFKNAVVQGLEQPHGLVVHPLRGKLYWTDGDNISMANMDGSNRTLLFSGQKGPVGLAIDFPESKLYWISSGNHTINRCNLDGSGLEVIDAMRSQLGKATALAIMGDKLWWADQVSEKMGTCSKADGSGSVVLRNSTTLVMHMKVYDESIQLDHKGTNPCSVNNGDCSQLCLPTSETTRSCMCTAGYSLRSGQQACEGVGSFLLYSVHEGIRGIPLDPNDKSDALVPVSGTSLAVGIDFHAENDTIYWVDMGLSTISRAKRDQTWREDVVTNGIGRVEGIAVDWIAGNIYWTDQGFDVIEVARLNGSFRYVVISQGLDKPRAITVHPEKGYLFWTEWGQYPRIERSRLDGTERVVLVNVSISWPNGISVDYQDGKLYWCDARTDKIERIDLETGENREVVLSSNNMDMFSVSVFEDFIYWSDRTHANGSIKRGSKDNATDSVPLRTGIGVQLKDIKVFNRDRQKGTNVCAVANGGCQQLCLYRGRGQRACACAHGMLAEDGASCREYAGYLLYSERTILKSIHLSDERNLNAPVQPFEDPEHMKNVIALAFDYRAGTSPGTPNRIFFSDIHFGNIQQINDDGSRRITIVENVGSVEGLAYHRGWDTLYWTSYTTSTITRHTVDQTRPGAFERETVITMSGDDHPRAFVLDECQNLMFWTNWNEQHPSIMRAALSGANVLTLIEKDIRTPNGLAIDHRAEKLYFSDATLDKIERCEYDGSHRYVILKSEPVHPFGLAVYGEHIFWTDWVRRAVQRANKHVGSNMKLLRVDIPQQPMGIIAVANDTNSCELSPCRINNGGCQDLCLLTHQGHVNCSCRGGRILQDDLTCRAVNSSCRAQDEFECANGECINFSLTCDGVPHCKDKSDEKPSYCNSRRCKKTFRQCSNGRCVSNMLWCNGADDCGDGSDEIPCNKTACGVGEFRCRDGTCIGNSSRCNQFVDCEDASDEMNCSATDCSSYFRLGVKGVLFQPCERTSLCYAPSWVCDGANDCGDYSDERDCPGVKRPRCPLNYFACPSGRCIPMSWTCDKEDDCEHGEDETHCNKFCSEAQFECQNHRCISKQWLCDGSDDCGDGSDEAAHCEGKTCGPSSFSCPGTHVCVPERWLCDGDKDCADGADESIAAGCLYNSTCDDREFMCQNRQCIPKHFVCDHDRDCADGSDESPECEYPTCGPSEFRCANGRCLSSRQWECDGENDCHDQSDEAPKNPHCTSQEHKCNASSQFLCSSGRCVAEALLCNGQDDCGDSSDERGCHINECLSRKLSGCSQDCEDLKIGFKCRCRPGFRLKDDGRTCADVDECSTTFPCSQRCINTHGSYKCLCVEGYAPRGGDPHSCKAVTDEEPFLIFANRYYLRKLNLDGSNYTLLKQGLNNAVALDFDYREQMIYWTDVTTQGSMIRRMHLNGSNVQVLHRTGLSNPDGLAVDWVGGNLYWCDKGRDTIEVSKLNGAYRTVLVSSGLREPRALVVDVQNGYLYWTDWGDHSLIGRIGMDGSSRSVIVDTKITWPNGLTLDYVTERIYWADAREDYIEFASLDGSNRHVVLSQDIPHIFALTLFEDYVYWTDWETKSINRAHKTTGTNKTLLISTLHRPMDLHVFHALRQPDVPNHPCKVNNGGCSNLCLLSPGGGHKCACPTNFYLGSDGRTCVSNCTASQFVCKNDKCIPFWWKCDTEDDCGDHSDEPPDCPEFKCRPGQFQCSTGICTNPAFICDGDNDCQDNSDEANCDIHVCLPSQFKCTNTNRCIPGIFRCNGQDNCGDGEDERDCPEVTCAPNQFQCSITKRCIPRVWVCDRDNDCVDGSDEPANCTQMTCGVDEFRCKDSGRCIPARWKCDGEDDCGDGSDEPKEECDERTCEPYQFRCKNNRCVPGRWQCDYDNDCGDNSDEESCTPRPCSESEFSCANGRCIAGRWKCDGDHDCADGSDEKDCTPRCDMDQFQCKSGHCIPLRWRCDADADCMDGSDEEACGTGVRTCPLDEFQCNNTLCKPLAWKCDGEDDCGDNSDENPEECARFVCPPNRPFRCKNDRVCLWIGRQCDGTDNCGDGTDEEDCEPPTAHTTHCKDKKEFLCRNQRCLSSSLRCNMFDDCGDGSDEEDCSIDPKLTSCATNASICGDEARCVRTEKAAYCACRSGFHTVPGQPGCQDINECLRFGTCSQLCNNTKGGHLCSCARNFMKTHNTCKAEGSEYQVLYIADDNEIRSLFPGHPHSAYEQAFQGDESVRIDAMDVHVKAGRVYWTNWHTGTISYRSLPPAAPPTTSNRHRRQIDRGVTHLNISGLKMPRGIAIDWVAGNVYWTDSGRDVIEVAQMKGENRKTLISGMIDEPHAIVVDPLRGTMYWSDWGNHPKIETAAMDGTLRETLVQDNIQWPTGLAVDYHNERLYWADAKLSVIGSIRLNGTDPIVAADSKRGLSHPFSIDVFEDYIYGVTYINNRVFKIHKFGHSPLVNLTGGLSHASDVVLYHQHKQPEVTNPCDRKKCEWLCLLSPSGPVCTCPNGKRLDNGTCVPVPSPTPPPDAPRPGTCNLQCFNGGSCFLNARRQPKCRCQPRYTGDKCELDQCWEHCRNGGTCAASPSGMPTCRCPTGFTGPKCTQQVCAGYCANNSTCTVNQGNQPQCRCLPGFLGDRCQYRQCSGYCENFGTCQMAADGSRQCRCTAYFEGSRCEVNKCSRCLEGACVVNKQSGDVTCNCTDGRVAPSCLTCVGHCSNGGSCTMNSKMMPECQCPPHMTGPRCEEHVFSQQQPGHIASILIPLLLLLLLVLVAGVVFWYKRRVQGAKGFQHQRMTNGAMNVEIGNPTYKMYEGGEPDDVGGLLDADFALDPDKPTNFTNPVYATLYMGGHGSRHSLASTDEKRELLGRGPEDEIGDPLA
substance,measurement,setting,value
"leptin: plasma protein of 16 kDa produced by adipocytes; recombinant human or mouse leptin, species depends on the experiment","degradation of activated α2-macroglobulin, the preferred LRP ligand",[1],no detectable effect
same,binding of chylomicrons to rat hepatocytes,[2],additive stimulatory effect
same,Leptin binding to CHO-K1 cells,[3],remained at levels similar to those seen with the vector alone
